Data: publication PMC10087552, “Non‐canonical binding of the Chaetomium thermophilum PolD4 N‐terminal PIP motif to PCNA involves Q‐pocket and compact 2‐fork plug interactions but no 3_10 helix” (The Febs Journal, 2022)
Blank lines part the entries; values can stand above or below the molecule they belong to.

Assays:
[1] = molecular target: Chaetomium thermophilum PCNA (proliferating cell nuclear antigen) (Chaetomium thermophilum); assay: crystal structure; apo Ct PCNA; 0.1 M PTCP buffer pH 5.0, 25% PEG 1500; 2.34 Å, space group H3, a single chain in the asymmetric unit
[2] = molecular target: Chaetomium thermophilum PCNA (proliferating cell nuclear antigen) (Chaetomium thermophilum); assay: crystal structure; co-crystallisation of Ct PCNA with the peptide; 0.2 M calcium acetate, 0.1 M sodium cacodylate pH 6.5, 36% PEG 300; 2.45 Å, space group P1, two trimers in the asymmetric unit
human PCNA = conditions: human PCNA–p12 PIP peptide interaction; ref [25]; read-out: dissociation constant (K D); cited from earlier work
Description: To examine the interaction between the Ct PolD4 PIP motif and Ct PCNA in greater detail and in the absence of GST, isothermal titration calorimetry (ITC) was used to determine the binding affinity of PCNA for a 15 amino acid synthetic PolD4 PIP peptide (sequence: ^21KHQSTLNFKHRVTKP^35) and the stoichiometry of the interaction (Fig. 4C). The dissociation constant (K D) was determined to be 22 ± 0.6 μM at 25 °C, broadly similar to that reported for the human PCNA–p12 PIP peptide interaction (38 ± 4 μM). The stoichiometry was determined to be 1 : 1 (i.e. 1 peptide : 1 PCNA protomer) indica ... || Three amino acids are key to interactions between Ct PolD4 and Ct PCNA: Gln23, Leu26 and Phe28. All three are strictly conserved in PolD4 proteins from fungal species closely related to C. thermophilum (Fig. 3). The sidechain of Gln23 inserts into the Q‐pocket on PCNA while the sidechains of Leu26 and Phe28 insert into the hydrophobic pocket located under the interdomain connector loop (IDCL) on the surface of PCNA (Figs 5 and 6A, upper left panel). The human p12 protein lacks the glutamine, equivalent to Gln23, that marks the start of the canonical PIP motif (Qxxψxxθθ), instead having a lysin ...

[3] = molecular target: Chaetomium thermophilum PCNA (proliferating cell nuclear antigen) (Chaetomium thermophilum); assay: ITC; Ct PolD4 PIP peptide (400 uM) titrated into Ct PCNA (30 uM) in the cell, 25 °C, 50 mM Tris-HCl, 50 mM NaCl, pH 8.0; single-site binding model; duplicate

stoichiometry N [1]: 3 protomers
stoichiometry N [2]: 3 protomers
Molecule: Chaetomium thermophilum PCNA (proliferating cell nuclear antigen) (natural protein)

Molecule: RKRLITDSYPVV [human p12 PIP peptide, N‐terminal PIP motif peptide of the human Pol δ subunit p12 (PolD4)]
Kd (human PCNA): 38 ± 4 µM

Kd [3]: 22 µM
stoichiometry N (peptide per PCNA protomer) [3]: 1
Molecule: KHQSTLNFKHRVTKP [Ct PolD4 PIP peptide (residues 21-35 of Chaetomium thermophilum PolD4)]
